Source: paper doi:10.1101/395996, “An interaction network of the human SEPT9 established by quantitative mass spectrometry reveals an interplay with myosin motors” (bioRxiv, 2018)

T1: 6his-SEPT9 (human, UniProt Q9UHD8 2-586)
T1 construct: SEPT9, human, PCR amplified from the GFP-SEPT9_i1 plasmid; the forward primer starts at the second codon (aag aag tct tac tca gga gg), the reverse primer holds the stop codon; also called 6his tagged SEPT9; 6his-tagged SEPT9; source: E. coli, purified (IMAC, approx. 70 % purity; desalted into PBS); not shown: His6, N-terminal, kept
T1 sequence (looked up): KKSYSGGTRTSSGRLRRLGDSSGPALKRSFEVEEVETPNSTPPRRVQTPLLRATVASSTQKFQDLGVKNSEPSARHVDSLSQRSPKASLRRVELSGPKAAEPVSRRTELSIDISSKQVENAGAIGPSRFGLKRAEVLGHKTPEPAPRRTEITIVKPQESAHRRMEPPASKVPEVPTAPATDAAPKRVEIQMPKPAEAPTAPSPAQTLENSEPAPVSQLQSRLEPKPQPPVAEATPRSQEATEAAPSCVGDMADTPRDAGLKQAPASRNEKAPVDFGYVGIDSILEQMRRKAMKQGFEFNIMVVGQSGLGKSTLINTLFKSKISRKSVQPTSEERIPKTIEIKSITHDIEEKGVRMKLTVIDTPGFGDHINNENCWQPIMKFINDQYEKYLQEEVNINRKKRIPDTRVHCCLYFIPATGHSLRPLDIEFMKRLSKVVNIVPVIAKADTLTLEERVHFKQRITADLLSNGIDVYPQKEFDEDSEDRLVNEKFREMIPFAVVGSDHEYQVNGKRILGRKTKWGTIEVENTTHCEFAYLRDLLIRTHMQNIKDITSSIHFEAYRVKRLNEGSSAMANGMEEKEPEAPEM

B1: GST-MYO6_(835-1294) (domain or fragment, UniProt Q9UM54 835-1294, looked up)
chain: PRIDGLVKVGTLKKRLDKFNEVVSVLKDGKPEMNKQIKNLEISIDTLMAKIKSTMMTQEQIQKEYDALVKSSEELLSALQKKKQQEEEAERLRRIQEEMEKERKRREEDEKRRRKEEEERRMKLEMEAKRKQEEEERKKREDDEKRIQAEVEAQLARQKEEESQQQAVLEQERRDRELALRIAQSEAELISDEAQADLALRRSLDSYPVSKNDGTRPKMTPEQMAKEMSEFLSRGPAVLATKAAAGTKKYDLSKWKYAELRDTINTSCDIELLAACREEFHRRLKVYHAWKSKNKKRNTETEQRAPKSVTDYDFAPFLNNSPQQNPAAQIPARQREIEMNRQQRFFRIPFIRPADQYKDPQSKKKGWWYAHFDGPWIARQMELHPDKPPILLVAGKDDMEMCELNLEETGLTRKRGAEILPRQFEEIWERCGGIQYLQNAIESRQARPTYATAMLQSLLK
notes: cloned in pGEX2T; also called C-terminal tail fragment of MYO6; source: E. coli, immobilised on Glutathione Sepharose from the crude extract; not shown: GST, N-terminal, kept
B2: GST-MYO1C_(809-1063) (domain or fragment, human, UniProt O00159 809-1063, looked up)
chain: LDHVRTSFLLNLRRQLPQNVLDTSWPTPPPALREASELLRELCIKNMVWKYCRSISPEWKQQLQQKAVASEIFKGKKDNYPQSVPRLFISTRLGTDEISPRVLQALGSEPIQYAVPVVKYDRKGYKPRSRQLLLTPNAVVIVEDAKVKQRIDYANLTGISVSSLSDSLFVLHVQRADNKQKGDVVLQSDHVIETLTKTALSANRVNSININQGSITFAGGPGRDGTIDFTPGSELLITKAKNGHLAVVAPRLNSR
notes: MYO1C, C-terminal tail fragment, amino acids 809-1063, amplified from cDNA of human 1306 fibroblast mRNA; cloned in pGEX2T; also called C-terminal tail fragment of MYO1C; source: E. coli, immobilised on Glutathione Sepharose from the crude extract; not shown: GST, N-terminal, kept

Target: T1, 6his-SEPT9
Assay: pull-down; GST fusions immobilised on Glutathione Sepharose from crude E. coli extract, incubated with 2 µM 6his-SEPT9 for 1 h in PBS; Western blot with anti-6his antibody; free GST as control
Conditions: both partners purified

Binder | binding result
B1 | binds
B2 | binds
